The values that follow are results of earlier work, collected in US20260091141A1, “GENE EDITING METHODS, SYSTEMS, AND COMPOSITIONS FOR TREATING SPINAL MUSCULAR ATROPHY” (The Broad Institute, Inc., priority 2023, published 2026).

For the data set, the system named is DNA. The following applies: SpCas9 mutation relative to SEQ ID NO: 209; UniProtKB Q99ZW2 entry.

B1: 175-307 deletion: SpCas9 mutation relative to SEQ ID NO: 209 (protein)
chain: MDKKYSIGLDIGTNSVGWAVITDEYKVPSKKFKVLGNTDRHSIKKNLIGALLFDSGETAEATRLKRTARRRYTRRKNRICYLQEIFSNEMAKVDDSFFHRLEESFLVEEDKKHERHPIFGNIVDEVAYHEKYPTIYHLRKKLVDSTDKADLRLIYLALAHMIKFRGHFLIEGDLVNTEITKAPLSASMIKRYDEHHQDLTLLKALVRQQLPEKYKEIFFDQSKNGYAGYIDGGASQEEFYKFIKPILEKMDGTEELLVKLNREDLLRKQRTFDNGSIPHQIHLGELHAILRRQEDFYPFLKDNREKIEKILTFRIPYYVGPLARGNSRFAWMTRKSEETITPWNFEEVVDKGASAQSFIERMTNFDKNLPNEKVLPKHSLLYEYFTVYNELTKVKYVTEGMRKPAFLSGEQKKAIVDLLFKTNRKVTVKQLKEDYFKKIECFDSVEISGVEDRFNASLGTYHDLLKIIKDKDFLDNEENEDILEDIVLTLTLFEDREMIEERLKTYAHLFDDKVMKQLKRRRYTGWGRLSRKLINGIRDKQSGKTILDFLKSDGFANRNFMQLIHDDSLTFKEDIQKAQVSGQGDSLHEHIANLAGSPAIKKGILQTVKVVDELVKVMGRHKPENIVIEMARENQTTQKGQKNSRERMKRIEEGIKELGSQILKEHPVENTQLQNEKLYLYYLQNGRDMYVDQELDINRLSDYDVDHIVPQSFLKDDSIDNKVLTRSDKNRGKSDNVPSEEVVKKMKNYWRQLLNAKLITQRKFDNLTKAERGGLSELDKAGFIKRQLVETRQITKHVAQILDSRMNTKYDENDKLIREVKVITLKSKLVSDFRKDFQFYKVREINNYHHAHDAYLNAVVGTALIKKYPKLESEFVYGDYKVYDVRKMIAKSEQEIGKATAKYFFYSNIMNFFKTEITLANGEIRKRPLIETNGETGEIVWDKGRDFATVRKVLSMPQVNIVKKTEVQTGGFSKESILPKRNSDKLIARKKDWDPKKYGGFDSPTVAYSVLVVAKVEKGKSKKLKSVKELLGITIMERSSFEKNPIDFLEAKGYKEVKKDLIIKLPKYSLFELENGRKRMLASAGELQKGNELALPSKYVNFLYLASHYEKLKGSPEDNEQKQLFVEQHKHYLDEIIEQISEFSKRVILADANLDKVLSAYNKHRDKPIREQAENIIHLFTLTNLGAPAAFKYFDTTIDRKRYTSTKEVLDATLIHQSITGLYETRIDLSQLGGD
modifications: serotype M1; Streptococcus pyogenes
In the case of B1, the “Function/Characteristic (as reported)” value was “About 50% decreased DNA cleavage”.
